Assay results from patent publication US11306156.

Legend:
[1] = molecular target: tissue factor (TF) antigen (UniProt P13726); experiment: SPR (ProteOn), Fab captured on anti-penta-His surface, TF injected; reference wild-type D3H44 Fab
[2] = molecular target: tissue factor (TF) antigen (UniProt P13726); experiment: SPR (ProteOn), Fab captured on anti-penta-His surface, TF injected, 1:1 fit
[3] = molecular target: tissue factor (TF) antigen (UniProt P13726); experiment: SPR, Fab captured on anti-penta-His surface, TF as analyte, 1:1 fit; Fab batch C
[4] = molecular target: tissue factor (TF) antigen (UniProt P13726); experiment: SPR, Fab captured on anti-penta-His surface, TF as analyte, 1:1 fit; Fab batch C; against wild-type D3H44 Fab
[5] = molecular target: tissue factor (TF) antigen (UniProt P13726); experiment: SPR (ProteOn XPR36), Fab captured on anti-penta-His, TF injected, 1:1 fit; batch C (+)
[6] = molecular target: tissue factor (TF) antigen (UniProt P13726); experiment: SPR, against wild-type D3H44 Fab; batch C (+)

Chain of tissue factor (TF) antigen (P13726 33-251 limits assumed): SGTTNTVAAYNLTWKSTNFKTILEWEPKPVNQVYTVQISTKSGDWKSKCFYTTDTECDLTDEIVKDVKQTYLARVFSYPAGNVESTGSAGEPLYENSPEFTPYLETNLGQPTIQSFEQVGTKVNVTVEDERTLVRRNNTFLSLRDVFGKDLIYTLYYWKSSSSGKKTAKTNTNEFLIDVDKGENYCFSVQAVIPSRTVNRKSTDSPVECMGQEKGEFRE

Substance | Change in median values of KD of h1l1 Fab heterodimer compared to wild type (-(log(KD design)-log(KD wt))) [1] | Kd [2] [nM] | Kd [3] [nM] | change in median KD compared to wild type, -(log(KD design)-log(KD wt)) [4] | other results
D3H44 H1L1 Fab heterodimer of LCCA Set # 9344 (H1 L124R_A125R; L1 V133G_S176D_T178D) | -0.23 | 0.27 |  |  | 
D3H44 H1L1 Fab heterodimer of LCCA Set # 9538 (H1 L124R_S186R; L1 V133G_S176D_T178D_T180E) | -0.04 | 0.17 |  |  | 
D3H44 H1L1 Fab heterodimer of LCCA Set # 9809 (H1 Q179R; L1 Q124E_T178E) |  |  | 0.14 | 0.04 | 
D3H44 H1L1 Fab heterodimer of LCCA Set # 9901 (H1 S186R; L1 Q124E_T180E) |  |  | 0.07 | 0.36 | 
D3H44 H1L1 Fab heterodimer of LCCA Set # 9987 (H1 L143E_K145T; L1 Q124R_T178R) |  |  | 0.11 | 0.15 | 
D3H44 H1L1 Fab heterodimer of LCCA Sets # 9349 and 9348 (H1 L124R_A139G_V190A; L1 V133G_L135W_S176D) | 0.03 | 0.15 |  |  | 
D3H44 H1L1 Fab heterodimer of LCCA Sets # 9505 and 9503 (H1 L124R_S186R; L1 Q124E_V133G_S176D_T178D_T180E) | -0.21 | 0.26 |  |  | 
H1L1 Fab heterodimer of LCCA Set # 9779 and 9780 (D3H44 Fab; H1 Q179K, L1 Q124E_S131T_T178Y_T180E) |  |  |  |  | Kd [5]: 0.16 nM; Change in median values of KD of h1l1 Fab heterodimer compared to wild type (-(log(KD design)-log(KD wt))) [6]: -0.01
H1L1 Fab heterodimer of LCCA Set # 9781 and 9782 (D3H44 Fab; H1 Q179K, L1 Q124E_S176L_T180E) |  |  |  |  | Kd [5]: 0.08 nM; Change in median values of KD of h1l1 Fab heterodimer compared to wild type (-(log(KD design)-log(KD wt))) [6]: 0.28
H1L1 Fab heterodimer of LCCA Set # 9803 and 9804 (D3H44 Fab; H1 Q179R, L1 Q124E_S131T_T178F_T180E) |  |  |  |  | Kd [5]: 0.11 nM; Change in median values of KD of h1l1 Fab heterodimer compared to wild type (-(log(KD design)-log(KD wt))) [6]: 0.14
H1L1 Fab heterodimer of LCCA Set # 9805 and 9806 (D3H44 Fab; H1 Q179R, L1 Q124E_S131T_T178Y_T180E) |  |  |  |  | Kd [5]: 0.13 nM; Change in median values of KD of h1l1 Fab heterodimer compared to wild type (-(log(KD design)-log(KD wt))) [6]: 0.07

Further lines, with some results ahead:

Change in median values of KD of h1l1 Fab heterodimer compared to wild type (-(log(KD design)-log(KD wt))) [1] | Kd [2] [nM] | Kd [3] [nM] | change in median KD compared to wild type, -(log(KD design)-log(KD wt)) [4] | Substance | other results
0.09 | 0.13 |  |  | D3H44 H1L1 Fab heterodimer of LCCA Set # 9185 (H1 L124E_L143D_K145M; L1 Q124K_V133G_S176R_T178R) | 
-0.29 | 0.31 |  |  | D3H44 H1L1 Fab heterodimer of LCCA Set # 9270 (H1 L124E_L143E_K145M; L1 Q124K_V133G_S176R_T178R) | 
-0.01 | 0.16 |  |  | D3H44 H1L1 Fab heterodimer of LCCA Set # 9362 (H1 L124R_D146N_Q179K; L1 V133G_S176D_T178E_T180E) | 
 |  | 0.13 | 0.09 | D3H44 H1L1 Fab heterodimer of LCCA Set # 9644 (H1 L143E_K145T_Q179D_S188L; L1 Q124R_Q160K_T178R) | 
 |  | 0.14 | 0.05 | D3H44 H1L1 Fab heterodimer of LCCA Set # 9784 (H1 Q179K; L1 Q124E_T178E) | 
 |  | 0.13 | 0.09 | D3H44 H1L1 Fab heterodimer of LCCA Set # 9831 (H1 S186K; L1 Q124E_Q160E_T180E) | 
-0.15 | 0.22 |  |  | D3H44 H1L1 Fab heterodimer of LCCA Sets # 9176, 9178 and 9179 (H1 L124E_L143D_K145M; L1 Q124K_V133G_S176R_T178K) | 
-0.15 | 0.22 |  |  | D3H44 H1L1 Fab heterodimer of LCCA Sets # 9237, 9236, 9234, 9239, 9243 and 9240 (H1 L124E_L143D_K145T; L1 V133G_S176R_T178K) | 
-0.1 | 0.2 |  |  | D3H44 H1L1 Fab heterodimer of LCCA Sets # 9521 and 9520 (H1 L124R_S186R; L1 V133G_S176D_T178D) | 
